The target of test [1] is T1, human LAP-TGFB1 Fc fusion (human).
T1 construct: also called human LAP-TGFβ1-Fc; human LAP-TGFβ-Fc isoform 1
Description: SPR pH 7.4, antigen-Fc captured, Fab analyte.

The target of test [2] is T1, human LAP-TGFB1 Fc fusion. Description: SPR pH 7.4, antigen-Fc captured, Fab analyte. This is another data set of the same source.
Test [3] has as its target T2, human LAP-TGFB2 Fc fusion (human).
T2 construct: also called human LAP-TGFβ2; LAP-TGFβ isoform 2
The test can be described thus: SPR pH 7.4.

Test [4] concerns the target T3, human LAP-TGFB3 Fc fusion (human).
T3 construct: also called human LAP-TGFβ3; LAP-TGFβ isoform 3
The test can be described thus: SPR pH 7.4.

For test [5], the target named is T1, human LAP-TGFB1 Fc fusion. Description: SPR pH 6.0, antigen-Fc captured, Fab analyte. Here is the method:
A Series S CM4 sensor chip (Cytiva, catalog BR100534) was immobilized with an anti-human Fc capture antibody following the kit protocol (Cytiva, catalog BR100839) on a Biacore T200 instrument with 1× HBS-EP+ (Teknova, catalog H8022). […] The binding data were double referenced by subtraction of signal from a reference (capture surface only) flow cell and the 0 nM Fab injection. Binding rate constants were determined by fitting the data with a 1:1 binding model (Cytiva Biacore T200 Evaluation software 3.0).

For test [6], the target named is T1, human LAP-TGFB1 Fc fusion. Description: SPR. (In SPR one partner is held on a chip, and binding of the other changes the refractive index at the surface.)
Test [7] addresses T1, human LAP-TGFB1 Fc fusion. Description: SPR pH 6.0, antigen captured on Fab 54BLH. An excerpt:
(§1) A Series S C1 sensor chip (Cytiva, catalog BR100535) was immobilized with low densities of high affinity Fab 54BLH on a Biacore T200 instrument with 1×HBS-EP+(Teknova, catalog H8022). This surface served as a monovalent capture surface for a low-density layer of heterodimer human LAP-TGFβ1 complex leaving the second binding site exposed for monovalent kinetic binding analysis with both mAbs and Fabs. Immobilized flow cell 1 served as the reference and flow cells 2, 3 and 4 were used to evaluate the binding interaction between human LAP-TGFβ1 and yeast display mutant mAbs and Fabs.
(§2) Approximately 15-25 RU of human LAP-TGFβ1-Fc was captured to the Fab capture surface followed by injection of 1:3 serially diluted Fabs and mAbs from 6 nM to 0.07 nM (Fabs: 54BLH, 55BLH, 60BLH, 63BLH, 64BLH-mAbs: 69BLH, 70BLH) and 1:3 serially diluted Fab and mAbs from 60 nM to 0.74 nM (Fabs: 59BLH, 66BLH, 67BLH—mAbs: 74BLH, 75BLH, 78BLH, 79BLH, 81BLH, 82BLH) including 0 nM. The binding data was double referenced by subtraction of signal from a reference flow cell and the 0 nM injections for evaluation of Fabs and mAbs respectively. Binding rate constants were calculated/determined by fitting the data with a 1:1 binding model (Cytiva Biacore T200 Evaluation software 3.0).

For test [8], the target named is T1, human LAP-TGFB1 Fc fusion. Description: SPR pH 7.4, antigen captured on Fab 54BLH.
Excerpt: as §1, §2

Results on four molecules are retold here after US20230272056A1 (Merck Sharp & Dohme, published 2023).

What is called Kd is the concentration at which binding is half-saturated. Read a high Kd as a looser complex. The term koff denotes the rate constant with which the complex falls apart. Low readings indicate a long-lived complex, high ones a short-lived complex. The term kon denotes the second-order rate constant of association. Low values mean slower complex formation, high ones faster complex formation.

T2 sequence (chain, as listed by the source limits assumed): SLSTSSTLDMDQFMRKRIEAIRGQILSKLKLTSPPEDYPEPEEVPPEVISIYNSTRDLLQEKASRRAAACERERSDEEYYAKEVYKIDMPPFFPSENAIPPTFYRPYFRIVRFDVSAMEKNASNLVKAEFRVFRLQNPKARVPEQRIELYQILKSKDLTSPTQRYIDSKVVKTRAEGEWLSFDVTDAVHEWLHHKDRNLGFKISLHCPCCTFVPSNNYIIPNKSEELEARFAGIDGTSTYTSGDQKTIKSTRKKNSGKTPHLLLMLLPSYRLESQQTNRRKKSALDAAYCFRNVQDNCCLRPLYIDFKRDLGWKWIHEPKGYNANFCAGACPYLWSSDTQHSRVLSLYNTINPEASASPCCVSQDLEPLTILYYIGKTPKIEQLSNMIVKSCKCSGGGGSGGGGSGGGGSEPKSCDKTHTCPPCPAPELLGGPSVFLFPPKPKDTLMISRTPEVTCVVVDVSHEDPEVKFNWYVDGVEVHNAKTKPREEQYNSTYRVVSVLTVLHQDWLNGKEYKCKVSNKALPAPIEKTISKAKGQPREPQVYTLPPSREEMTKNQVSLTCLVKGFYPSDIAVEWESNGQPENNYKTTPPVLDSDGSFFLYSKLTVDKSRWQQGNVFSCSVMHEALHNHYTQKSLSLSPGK
T3 sequence (chain, as listed by the source limits assumed): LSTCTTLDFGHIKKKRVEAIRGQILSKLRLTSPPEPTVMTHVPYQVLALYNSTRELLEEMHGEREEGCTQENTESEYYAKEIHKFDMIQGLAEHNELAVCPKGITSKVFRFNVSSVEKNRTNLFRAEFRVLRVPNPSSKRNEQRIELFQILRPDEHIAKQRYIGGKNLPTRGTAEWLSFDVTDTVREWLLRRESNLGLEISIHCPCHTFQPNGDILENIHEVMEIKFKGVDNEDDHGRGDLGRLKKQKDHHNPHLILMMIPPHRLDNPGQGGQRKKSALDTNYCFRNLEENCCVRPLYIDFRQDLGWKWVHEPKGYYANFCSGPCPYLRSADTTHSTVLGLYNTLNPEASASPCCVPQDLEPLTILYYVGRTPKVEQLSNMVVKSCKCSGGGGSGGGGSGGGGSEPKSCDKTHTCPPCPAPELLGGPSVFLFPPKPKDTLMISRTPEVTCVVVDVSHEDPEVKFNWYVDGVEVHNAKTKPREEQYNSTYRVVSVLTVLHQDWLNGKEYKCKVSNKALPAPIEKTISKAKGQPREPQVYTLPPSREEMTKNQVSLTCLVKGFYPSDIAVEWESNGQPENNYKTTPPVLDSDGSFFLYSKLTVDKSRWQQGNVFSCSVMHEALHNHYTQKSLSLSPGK
T1 sequence (chain, as listed by the source limits assumed): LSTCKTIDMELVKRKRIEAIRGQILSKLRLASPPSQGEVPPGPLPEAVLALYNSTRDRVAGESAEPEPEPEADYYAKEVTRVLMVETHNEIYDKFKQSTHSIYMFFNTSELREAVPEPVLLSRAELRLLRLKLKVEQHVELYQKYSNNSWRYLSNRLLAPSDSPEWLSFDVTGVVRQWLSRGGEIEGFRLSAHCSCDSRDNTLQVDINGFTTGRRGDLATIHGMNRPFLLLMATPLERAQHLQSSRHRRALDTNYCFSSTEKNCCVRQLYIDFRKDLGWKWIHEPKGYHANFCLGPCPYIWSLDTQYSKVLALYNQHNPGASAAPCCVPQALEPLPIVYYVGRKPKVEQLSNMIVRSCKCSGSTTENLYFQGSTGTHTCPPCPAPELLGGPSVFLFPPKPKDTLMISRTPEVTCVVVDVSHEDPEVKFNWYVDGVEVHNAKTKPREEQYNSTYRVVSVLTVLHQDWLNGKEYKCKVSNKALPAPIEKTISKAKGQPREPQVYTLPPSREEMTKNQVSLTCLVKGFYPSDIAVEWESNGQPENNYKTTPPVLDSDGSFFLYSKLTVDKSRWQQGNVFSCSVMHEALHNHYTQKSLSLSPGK

B1: 56BLH (Fab, V domains shown)
VH: EVQLVQSGAEVKKPGASVKVSCKASGYTFTSYDMHWVRQAPGQGLEWMGRIDPQSGGTKYAQKFQGRATLTVDTSTSTAYMELSRLRSDDTAVYYCARWDYGGQFDVWGQGTLVTVSS
VL: DIQMTQSPSSLSASVGDRVTITCRASQDIYNYLNWYQQKPGKAVKLLIYYTSGLETGVPSRFSGSGSGTDYTLTISSLQPEDFATYFCQQGDTLPWTFGQGTKLEIK
notes: also called 08BLM Fab
In test [1], B1 returned an equilibrium dissociation constant (Kd) of 0.006 nM, a koff of 2.57e-05 s⁻¹ and a kon of 4.53e+06 M⁻¹ s⁻¹. In addition, in test [2], the “Fold improvement in KD” value was determined as 9760 fold; the affinity, expressed as Kd, was 0.006 nM; the koff worked out at 2.57e-05 s⁻¹; the kon is 4.53e+06 M⁻¹ s⁻¹. Further, the binding result in test [3] is on record as “no binding (tested: 1000 nM Fab)”. The binding result in test [4] was “no binding (tested: 1000 nM Fab)”. Also, in test [5], binding was put at a Kd of 0.01 nM, the off-rate constant (koff) was found to be 5.56e-05 s⁻¹ and the kon amounted to 5.55e+06 M⁻¹ s⁻¹. Besides, the “Fold change in KD from pH 7.4 to pH 6” value in test [6] was 1.7 fold.

B2: 66BLH (Fab, V domains shown)
VH: EVQLVQSGAEVKKPGASVKVSCKASGYTFTSYDMHWVRQAPGQGLEWMGRIDPQSGGIKYAQKFQGRATLTVDTSTSTAYMELSRLRSDDTAVYYCARYDHGGYFDVWGQGTLVTVSS
VL: DIQMTQSPSSLSASVGDRVTITCRASQDIYNYLNWYQQKPGKAVKLLIYYTSRLETGVPSRFSGSGSGTDYTLTISSLQPEDFATYFCQQGDTLPWTFGQGTKLEIK
notes: also called 18BLM Fab
For B2, in test [2], the “Fold improvement in KD” value came out at 16 fold. Moreover, the values for the Kd in test [2], in test [7] and in test [8] were 3.73 nM, 16.8 nM and 3.13 nM, respectively. Moreover, the koff in test [2] stood at 0.00764 s⁻¹; in test [7], 0.0329 s⁻¹; in test [5] it was 0.0221 s⁻¹; in test [8] it was 0.0181 s⁻¹. The kon was 2.05e+06 M⁻¹ s⁻¹ in test [2], 1.96e+06 M⁻¹ s⁻¹ in test [7], 2.09e+06 M⁻¹ s⁻¹ in test [5] and 5.76e+06 M⁻¹ s⁻¹ in test [8]. For the same molecule, the binding result in test [3] and in test [4] was “no binding (tested: 1000 nM Fab)” each time.

B3: 65BLH (Fab, V domains shown)
VH: EVQLVQSGAEVKKPGASVKVSCKASGYTFTSYDMHWVRQAPGQGLEWMGRIDPQSGGIKYAQKFQGRATLTVDTSTSTAYMELSRLRSDDTAVYYCARWDYGGYFDVWGQGTLVTVSS
VL: DIQMTQSPSSLSASVGDRVTITCRASQDIYNYLNWYQQKPGKAVKLLIYYTSRLETGVPSRFSGSGSGTDYTLTISSLQPEDFATYFCQQGDELPWTFGQGTKLEIK
notes: also called 17BLM Fab
Regarding B3, in test [1], the affinity, expressed as Kd, was 0.146 nM; the koff came out at 0.00107 s⁻¹; the association rate constant (kon) turned out to be 7.33e+06 M⁻¹ s⁻¹. In test [2], the “Fold improvement in KD” value is 401 fold, the Kd was found to be 0.146 nM, the koff is 0.00107 s⁻¹ and the on-rate (kon) worked out at 7.33e+06 M⁻¹ s⁻¹. In addition, the binding result in test [3] is “no binding (tested: 1000 nM Fab)”. Also, the binding result in test [4] is recorded as “no binding (tested: 1000 nM Fab)”. Also, in test [6], the “Fold change in KD from pH 7.4 to pH 6” value came out at 0.4 fold.

B4: 57BLH (Fab, V domains shown)
VH: EVQLVQSGAEVKKPGASVKVSCKASGYTFTSYDMHWVRQAPGQGLEWMGRIDPISGGIKYAQKFQGRATLTVDTSTSTAYMELSRLRSDDTAVYYCARWDYGGYFDVWGQGTLVTVSS
VL: DIQMTQSPSSLSASVGDRVTITCRASQDIFNYLNWYQQKPGKAVKLLIYYTSHLETGVPSRFSGSGSGTDYTLTISSLQPEDFATYFCQQGDTLPWTFGQGTKLEIK
notes: also called 09BLM Fab
In test [1], B4 came in with a Kd of 0.081 nM, a koff of 0.00049 s⁻¹ and an on-rate constant (kon) of 6.06e+06 M⁻¹ s⁻¹. In addition, in test [2], the “Fold improvement in KD” value came to 723 fold, the Kd was 0.081 nM, the koff was determined as 0.00049 s⁻¹ and the kon is 6.06e+06 M⁻¹ s⁻¹. The binding result in test [3] is on record as “no binding (tested: 1000 nM Fab)”. The binding result in test [4] is given as “no binding (tested: 1000 nM Fab)”. Moreover, in test [5], the Kd is 0.106 nM, the koff came to 0.00159 s⁻¹ and the kon was 1.54e+07 M⁻¹ s⁻¹. The “Fold change in KD from pH 7.4 to pH 6” value in test [6] worked out at 1.3 fold.
